# Data published in IntAct's records for PubMed 25946333.
# B1: Nuclear envelope integral membrane protein 1 (Mus musculus), Q6ZQE4 (parent)
# chain: MAGGIKVSVWSAVGPGPRCWGAGGGGGATWLLLVVAGCVVCGSADVNVVMLQESQVDMNSSQQFCYKNVLIPKWHDIWTRIQVRVNSSKLVRVTQVDNEEKLKELEQFSIWNFFSSFLKEKLNDTYVNVGLYSTKTCLKVEMIEKDTTYSVTVTRRFDPKLFLVFLLGLTLFFCGDLLSRSQIFYYSTGMSVGIVASLLIVIFMISKFMPKRSPIYVILVGGWSFSLYLIQLVFKNLQEIWRSYWHYLLSYILTVGFMSFAVCYKYGPLENERSINLLTWTLQLLGLGLMYSSIQIPHVAFALIVIALCTKNLEYPIHWLCSTYRRMCKASGKPVPPRLLTEEEYRIQGEVETQKALQELREFCNSPECSAWKTISRIQSPKRFADFVEGSFHLTPNEVSVHEQEYGLGSIFTQDEELSSEEEGSEYPTFTQNNFLT
# Variants of: B1
# Settings: with ran_mouse Ran
row,effect of a mutation on the interaction,Variant
1,disrupting interaction strength,S366A;S376A;S380A;S419A;S420A
2,disrupting interaction strength,S366E;S376E;S380E;S419E;S420E
